Measured values reported in patent US11464867B2, “Multimeric elastin-like polypeptides” (University of Southern California, priority 2018, dated 2022).
Where “and” joins values, the source holds several entries; their conditions need not be identical. Identical values can stand only once. Entries after “also recorded” stand apart in the source; their conditions may differ.

Tests used:
[1] = system: HeLa cells; assay: HeLa cell uptake, co-localization with lysosomes (confocal microscopy); format: cell-based; conditions: 30 μM rhodamine-labeled ELP; 120 min; LysoTracker Green
Procedure: Lysosomes were labeled by LysoTracker Green® having the structure:
In order to further validate the potential efficacy of CA192 working as a potent drug binding domain, an in vitro cell uptake study was performed. Briefly, CA192 and A192 was labeled with rhodamine and HeLa cell lysosome with LysoTracker Green (LTG)® having the structure as described herein. For the treatment group, HeLa cells were incubated with 30 μM of rhodamine-labeled (rh)-CA192 and 70 nM of LTG for 120 min. For the control group, HeLa cells were incubated with 30 μM of rhodamine-labeled (rh)-A192 and 70 nM of LTG for 120 min. Cells were then rinsed with warm HBSS three times, maintained in the fresh culture medium, and imaged by confocal microscopy. Images were acquired using a Zeiss laser scanning microscope 510 Meta NLO confocal imaging system equipped with Argon, red HeNe, green HeNe laser, and a Coherent Chameleon Ti-Sapphire laser (LSM) mounted on a vibration-free table (Carl Zeiss, Thornwood, N.Y.). All images were acquired using a Plan-Apochromat 63× Oil immersion lens with a working distance of 0.19 mm.

[2] = ATRA encapsulation in 4PA, two phase method, HPLC; format: physicochemical; conditions: control ELP
Source text: FIG. 21: SDS PAGE was used to resolve the purified 4PA fusion protein. To formulate ATRA-loaded 4PA, a two phase encapsulation method was adopted. After removing undissolved drug, HPLC was used to quantify 4PA and ATRA concentrations. Encapsulation ratio, defined as CATRA/C4PA was 2.7, theoretical maximum being 4.

[3] = Phase transition temperature by optical density (UV-Vis, 350 nm) versus temperature; format: physicochemical; conditions: mean ± 95% CI, Table 2
Procedure: The temperature with the maximum positive slope was defined as the phase transition temperature for each condition. (FIG. 2B) The concentration-temperature phase diagram was determined for both ELPs, and fit to the following equation: Tt=b−m Log10[CELP].
Both ELPs at different concentrations (5 μM to 100 μM) were subject to a precisely controlled temperature increase from 25 to 75° C. at a rate of 1° C./min. The Tt of ELPs is defined as the temperature at which the first derivative of the optical density with respect to the temperature reaches a maximum.

[4] = Dynamic light scattering (DLS) hydrodynamic radius and stability; format: physicochemical; conditions: DLS intensity; 20 μM
Procedure: FIGS. 5A-5D: CA192 (SEQ ID NO: 3) has a good stability in terms of hydrodynamic radius. There are two fractions present in the CA192 (SEQ ID NO: 3) solution: an aggregated form and dimeric form. A dimerized form has similar hydrodynamic radius, Rh as A192. […] Drug-loaded CA192 (SEQ ID NO: 3) has a mean Rh of 64.5±0.5 nm (p<0.05). […] (FIG. 5C) Size Exclusion Chromatography (SEC) was conducted to fractionate CA192 (SEQ ID NO: 3) depending on their particle size. Two fractions were observed. […] In contrast, the fraction 1 contains a mixture of larger aggregates.
The hydrodynamic radius (Rh) of both the loaded and unloaded fusion protein, along with plain A192, was measured via dynamic light scattering (DLS) using a DynaPro Plate Reader II from Wyatt Technology. Before the DLS measurement, solutions were filtered through […] pore size filters. The concentration of each solution was then adjusted to 20 μM. 60 μL from each sample was pipetted into three different wells on the plate reader and covered by 15 μL mineral oil each to avoid solvent evaporation. […] Briefly, the fusion solution was incubated at 37° C. for different periods of time up to 48 h and the mean Rh of CA192 at these different time points was measured with DLS. […] (FIG. 5D) Through measuring the CA192 concentration of both fractions, Applicants determined that 20.8% by mass in solution is represented by the multimerized particles. […]

B1: (VPGAG)192 (protein)
chain: VPGAGVPGAGVPGAGVPGAGVPGAGVPGAGVPGAGVPGAGVPGAGVPGAGVPGAGVPGAGVPGAGVPGAGVPGAGVPGAGVPGAGVPGAGVPGAGVPGAGVPGAGVPGAGVPGAGVPGAGVPGAGVPGAGVPGAGVPGAGVPGAGVPGAGVPGAGVPGAGVPGAGVPGAGVPGAGVPGAGVPGAGVPGAGVPGAGVPGAGVPGAGVPGAGVPGAGVPGAGVPGAGVPGAGVPGAGVPGAGVPGAGVPGAGVPGAGVPGAGVPGAGVPGAGVPGAGVPGAGVPGAGVPGAGVPGAGVPGAGVPGAGVPGAGVPGAGVPGAGVPGAGVPGAGVPGAGVPGAGVPGAGVPGAGVPGAGVPGAGVPGAGVPGAGVPGAGVPGAGVPGAGVPGAGVPGAGVPGAGVPGAGVPGAGVPGAGVPGAGVPGAGVPGAGVPGAGVPGAGVPGAGVPGAGVPGAGVPGAGVPGAGVPGAGVPGAGVPGAGVPGAGVPGAGVPGAGVPGAGVPGAGVPGAGVPGAGVPGAGVPGAGVPGAGVPGAGVPGAGVPGAGVPGAGVPGAGVPGAGVPGAGVPGAGVPGAGVPGAGVPGAGVPGAGVPGAGVPGAGVPGAGVPGAGVPGAGVPGAGVPGAGVPGAGVPGAGVPGAGVPGAGVPGAGVPGAGVPGAGVPGAGVPGAGVPGAGVPGAGVPGAGVPGAGVPGAGVPGAGVPGAGVPGAGVPGAGVPGAGVPGAGVPGAGVPGAGVPGAGVPGAGVPGAGVPGAGVPGAGVPGAGVPGAGVPGAGVPGAGVPGAGVPGAGVPGAGVPGAGVPGAGVPGAGVPGAGVPGAGVPGAGVPGAGVPGAGVPGAGVPGAGVPGAGVPGAGVPGAGVPGAGVPGAGVPGAGVPGAGVPGAGVPGAGVPGAGVPGAGVPGAGVPGAGVPGAGVPGAGVPGAGVPGAGVPGAGVPGAGVPGAGVPGAGVPGAGVPGAG
- co-localization with lysosomes [1]: obvious co-localization with lysosome; also recorded: co-localized with lysosomes; also recorded: co-localizing with lysosomes
- ATRA peak on HPLC after encapsulation [2]: not detectable
- Slope, m ([3]; fit Tt = b - m Log10[CELP]): 8.3 ± 0.28 ° C./Log10(μM)
- Intercept, b ([3]; intercept at 1 μM): 72.3 ± 0.41 °C
- mean hydrodynamic radius (Rh) [4]: 7.3±0.6 nm and 7.3±0.4 nm
